In article PMC9279676, “ERK2 MAP kinase regulates SUFU binding by multisite phosphorylation of GLI1” (Life Science Alliance, 2022):

B1: GLI1_(1-232), wild type, 35S-radiolabeled [modified: [35S]-methionine label; [35S]-methionine label] [human] / GST-SUFU (fusion of GST to full-length human SUFU) [human] (parent complex)
chain 1: MFNSMTPPPISSYGEPCCLRPLPSQGAPSVGTEGLSGPPFCHQANLMSGPHSYGPARETNSCTEGPLFSSPRSAVKLTKKRALSISPLSDASLDLQTVIRTSPSSLVAFINSRCTSPGGSYGHLSIGTMSPSLGFPAQMNHQKGPSPSFGVQPCGPHDSARGGMIPHPQSRGPFPTCQLKSELDMLVGKCREEPLEGDMSSPNSTGIQDPLLGMLDGREDLEREEKREPESV
chain 2: MAELRPSGAPGPTAPPAPGPTAPPAFASLFPPGLHAIYGECRRLYPDQPNPLQVTAIVKYWLGGPDPLDYVSMYRNVGSPSANIPEHWHYISFGLSDLYGDNRVHEFTGTDGPSGFGFELTFRLKRETGESAPPTWPAELMQGLARYVFQSENTFCSGDHVSWHSPLDNSESRIQHMLLTEDPQMQPVQTPFGVVTFLQIVGVCTEELHSAQQWNGQGILELLRTVPIAGGPWLITDMRRGETIFEIDPHLQERVDKGIETDGSNLSGVSAKCAWDDLSRPPEDDEDSRSICIGTQPRRLSGKDTEQIRETLRRGLEINSKPVLPPINPQRQNGLAHDRAPSRKDSLESDSSTAIIPHELIRTRQLESVHLKFNQESGALIPLCLRGRLLHGRHFTYKSITGDMAITFVSTGVEGAFATEEHPYAAHGPWLQILLTEEFVEKMLEDLEDLTSPEEFKLPKEYSWPEKKLKVSILPDVVFDSPLH

Variants of: B1
Assay: GST-SUFU pull-down binding assay with 35S-radiolabeled in vitro-translated GLI1; parent: 8 nM

Q: Which Kd does the source give for chain 1 MFNSMTPPPISSYGEPCCLRPLPSQGAPSVGTEGLSGPPFCHQANLMSGPHSYGPARETNSCTEGPLFSSPRSAVKLTKKRALSISPLSDASLDLQTVIRTEPSSLVAFINSRCTSPGGSYGHLSIGTMSPSLGFPAQMNHQKGPSPSFGVQPCGPHDSARGGMIPHPQSRGPFPTCQLKSELDMLVGKCREEPLEGDMSSPNSTGIQDPLLGMLDGREDLEREEKREPESV [chain 1 S102E] here?
A: 67 nM

Q: With chain 1 MFNSMTPPPISSYGEPCCLRPLPSQGAPSVGTEGLSGPPFCHQANLMSGPHSYGPARETNSCTEGPLFSSPRSAVKLTKKRALSISPLSDASLDLQTVIRTSPSSLVAFINSRCTSPGGSYGHLSIGTMEPSLGFPAQMNHQKGPSPSFGVQPCGPHDSARGGMIPHPQSRGPFPTCQLKSELDMLVGKCREEPLEGDMSSPNSTGIQDPLLGMLDGREDLEREEKREPESV [chain 1 S130E] as the variant, how does the Kd read?
A: 21 nM
